For test [1], the target named is IKKε (UniProt Q14164). Put plainly: anti-GEF-H1 co-IP, IKKε blot. Conditions: sites S886.
Test [2] concerns the target IRF5 (UniProt Q13568). Briefly: anti-GEF-H1 co-IP, IRF5 blot. Particulars: reference: wild type; sites S886.

Consider “GEF-H1 (from UniProt Q92974) S324A/S886A”, for which the “binding against the reference” value in test [1] (reference: S324A) is “stronger”.
Consider “GEF-H1 (from UniProt Q92974) S399A/S886A”, for which the “binding against the reference” value in test [1] (reference: S399A) is recorded as “gained”.
On to GEF-H1 (from UniProt Q92974) S886A, for which the “binding against the reference” value in test [2] and in test [1] (reference: wild type) was “stronger” each time.
